Measured values reported in patent publication US20130045200A1.
pEC50: −log10 of the molar value.

Biological target: rat PD-L1 (rat) (UniProt D4AE25)
Assay: flow cytometry (FACS); rat cells or protein not described

pEC50: 9.10
Substance: YW243.55.S70 (IgG) (antibody)
